Assay results published in patent US20050048605A1 (Takeda / Millennium, published 2005).
Substitutions are numbered along the chain they refer to. Where no end group is shown, it is not given here. [ ]: non-standard residue; d: D form. The star is where a group is joined. Nle = CCCC[C@H](N)C(=O)O; 125I = [125I]*

How the values were obtained:
[1] = molecular target: T1, human-derived G protein-coupled receptor protein TGR23-2 (human TGR23-2) (human, UniProt Q6W5P4 1-371); assay: competition with [Nle10,125I-Tyr15] human TGR23-2 ligand (1-20); membrane fraction of TGR23-2 expressing CHO cells at 1 ug/ml; filter assay
T1 construct: Expressed in CHO dhfr- cells (pAKKO-TGR23-2)
T1 chain: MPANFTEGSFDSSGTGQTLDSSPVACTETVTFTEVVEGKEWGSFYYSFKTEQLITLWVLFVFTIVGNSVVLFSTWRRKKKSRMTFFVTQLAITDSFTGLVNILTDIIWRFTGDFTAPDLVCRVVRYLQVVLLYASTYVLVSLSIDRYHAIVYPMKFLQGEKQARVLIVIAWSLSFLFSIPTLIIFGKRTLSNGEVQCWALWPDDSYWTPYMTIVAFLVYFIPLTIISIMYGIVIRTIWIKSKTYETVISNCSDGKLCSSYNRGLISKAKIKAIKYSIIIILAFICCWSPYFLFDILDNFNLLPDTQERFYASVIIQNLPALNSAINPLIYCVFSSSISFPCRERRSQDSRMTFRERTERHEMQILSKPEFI
Protocol: Cell membrane fraction prepared from TGR23-1 expressing CHO cells and TGR23-2 expressing CHO cells was diluted to various concentration with assay buffer (20 mM Tris-HCl, 5 mM EDTA, 0.1% BSA, 0.5 mM PMSF, 1 μg/ml Pepstatin, 4 μg/ml E-64, 20 μg/ml Leupeptin, pH7.4), and 200 μl each of the diluent was dispensed into polypropilene test tube (Falcon 2053). In order to determine an amount of maximum binding, 2 μl of DMSO and 2 μl of 10 nM [Nle¹⁰, ¹²⁵I-Tyr¹⁵] human TGR23-2 ligand (1-20) were added to the membrane fraction solution. Further, in order to determine a non-specific binding, 2 μl of 1 μM [Nle¹⁰, Tyr¹⁵] human TGR23-2 ligand (1-20)/DMSO solution was added to the membrane fraction solution. The reaction was done at 25° C. for 90 minutes, and the reaction mixture was filtered by suction filtration using Whatman glassfilter (GF-F) treated with polyethyleneimine. After filtration, a radioactivity remaining on the filter was counted using γ-counter, and an amount of specific binding was estimated by subtracting an amount of non-specific binding from an amount of maximum binding. When the concentration of membrane fraction was changed, a specific binding of [Nle¹⁰, ¹²⁵I-Tyr¹⁵] human TGR23-2 ligand (1-20) was perceived depending on the concentration of membrane fraction. An inhibition of binding activity of the test specimen to TGR23-1 receptor or TGR23-2 receptor (inhibition rate (%)) was represented by a ratio of the value to the specific binding (SB), wherein the value is calculated by subtracting the radioactivity remaining on the filter (X) in the case of adding the test sample and [Nle¹⁰, ¹²⁵I-Tyr¹⁵] human TGR3-2 ligand (1-20) from the total binding (TB) ((TB−X)/SB×100 (%)).

[2] = molecular target: T2, rat-derived G protein-coupled receptor protein TGR23-5 (rat TGR23-5) (rat, UniProt P0C0L6 1-372); assay: cell-based or functional assay
T2 sequence: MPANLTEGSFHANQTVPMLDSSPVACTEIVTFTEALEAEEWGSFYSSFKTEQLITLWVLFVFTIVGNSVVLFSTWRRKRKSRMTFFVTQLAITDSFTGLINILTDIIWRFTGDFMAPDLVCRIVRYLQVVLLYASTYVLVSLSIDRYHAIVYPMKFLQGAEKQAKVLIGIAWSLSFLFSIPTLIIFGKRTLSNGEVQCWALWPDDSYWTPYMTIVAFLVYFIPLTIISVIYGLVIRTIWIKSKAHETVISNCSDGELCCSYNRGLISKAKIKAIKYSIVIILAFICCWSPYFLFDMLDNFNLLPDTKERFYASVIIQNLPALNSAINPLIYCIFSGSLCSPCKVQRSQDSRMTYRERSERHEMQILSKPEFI

[3] = molecular target: T3, rat-derived G protein-coupled receptor protein TGR23-1 (rat TGR23-1) (rat, UniProt P0C0L6 1-372); assay: cell-based or functional assay
T3 sequence: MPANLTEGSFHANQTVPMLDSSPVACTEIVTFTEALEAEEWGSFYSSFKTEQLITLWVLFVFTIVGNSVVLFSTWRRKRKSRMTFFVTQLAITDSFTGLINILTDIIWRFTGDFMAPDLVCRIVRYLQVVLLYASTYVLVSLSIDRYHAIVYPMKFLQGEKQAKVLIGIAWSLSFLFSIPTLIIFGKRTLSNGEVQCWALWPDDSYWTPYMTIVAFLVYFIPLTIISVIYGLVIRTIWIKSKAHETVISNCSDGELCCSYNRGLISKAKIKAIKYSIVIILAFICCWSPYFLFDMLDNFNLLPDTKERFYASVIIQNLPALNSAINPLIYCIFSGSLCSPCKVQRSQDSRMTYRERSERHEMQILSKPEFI

[4] = molecular target: T1, human-derived G protein-coupled …; assay: radioligand filter binding on the membrane fraction of TGR23-2 expressing CHO cells
Text: (§1) The Receptor Binding Assay Using [Nle¹⁰, ¹²⁵I-Tyr¹⁵] human TGR3-2 ligand (1-20) Using using [Nle¹⁰, ¹²⁵I-Tyr¹⁵] human TGR23-2 ligand (1-20) prepared by the method described in Example 26, and a cell membrane fraction prepared from TGR23-2 expressing CHO cells as described in Example 24 and a cell membrane fraction prepared from TGR23-1 expressing CHO cells by the similar method to that described in Example 24 using TGR23-1 expressing CHO cells instead of TGR23-2 expressing CHO cells, a receptor binding assay was carried out as follows.
(§2) Cell membrane fraction prepared from TGR23-1 expressing CHO cells and TGR23-2 expressing CHO cells was diluted to various concentration with assay buffer (20 mM Tris-HCl, 5 mM EDTA, 0.1% BSA, 0.5 mM PMSF, 1 μg/ml Pepstatin, 4 μg/ml E-64, 20 μg/ml Leupeptin, pH7.4), and 200 μl each of the diluent was dispensed into polypropilene test tube (Falcon 2053). In order to determine an amount of maximum binding, 2 μl of DMSO and 2 μl of 10 nM [Nle¹⁰, ¹²⁵I-Tyr¹⁵] human TGR23-2 ligand (1-20) were added to the membrane fraction solution. […] After filtration, a radioactivity remaining on the filter was counted using γ-counter, and an amount of specific binding was estimated by subtracting an amount of non-specific binding from an amount of maximum binding. […]

[5] = molecular target: T3, rat-derived G protein-coupled receptor …; assay: saturation binding with Scatchard analysis on the membrane fraction of rat TGR23-1 expressing CHO cells; row head 'Binding Constant'; text gives dissociation constant 141±8.71 (pM)
Protocol: (§3) The membrane fractions of rat TGR23-1 expressing CHO cells and rat TGR23-5 expressing CHO cells, which were prepared as described above, were suspended in binding buffer (20 mM Tris-HCl (pH7.4), 5 mM EDTA, 0.1% BSA, 0.5 mM PMSF, 0.1 μg/ml of pepstatin, 20 μg/ml of leupeptine and 4 μg/ml of E-64). The concentrtion was adjusted to 10 μg/ml. The solutiion was used as a membrane fraction solution for binding saturation. Total binding of [Nle¹⁰, ¹²⁵I-Tyr¹⁵] human TGR23-2 ligand (1-20), which was prepared by the method described in Example 26, to the membrane fractions, was obtained by the following method.
(§4) To 200 μl of the membrane fraction solution for binding saturation, 2 μl of dimethylsulfoxide (DMSO) and 2 μl of [Nle¹⁰, ¹²⁵I-Tyr¹⁵] human TGR23-2 ligand (1-20) having various concentrations, were added, and then the mixture was incubated at 25° C. for 90 minutes. […] The radioactivity of [Nle¹⁰, ¹²⁵I-Tyr¹⁵] human TGR23-2 ligand (1-20) trapped on the glass filter was measured by counter, and the obtained value was determined as the total binding. […] A specific binding at a given concentration of [Nle¹⁰, ¹²⁵I-Tyr¹⁵] human TGR23-2 ligand (1-20) is calculated by subtracting the non-specific binding from the total binding at the same concentration. […]

[6] = molecular target: T2, rat-derived G protein-coupled receptor …; assay: saturation binding with Scatchard analysis on the membrane fraction of rat TGR23-5 expressing CHO cells; row head 'Binding Constant'; text gives dissociation constant 125±8.36 (pM)
Protocol: as §3, §4

[7] = molecular target: T4, human-derived G protein-coupled receptor protein TGR23-1 (human TGR23-1) (human, UniProt Q6W5P4 1-371); assay: radioligand filter binding on the membrane fraction of TGR23-1 expressing CHO cells
T4 construct: Expressed in CHO dhfr- cells (pAKKO-TGR23-1)
T4 sequence: T1 chain with I107N, R344Q
Text: as §1, §2

B1: rat TGR23-2 ligand (1-18) (peptide)
peptide: SFRNGVGSGVKKTSFRRA
In the case of B1, the IC50 [1] is reported as 0.0928 nM, the “Intracellular Ca increasing activity (EC50)” value [2] is reported as 14 nM and the “Intracellular Ca increasing activity (EC50)” value [3] is reported as 0.19 nM.

B2: [Nle^10, ^125I-Tyr^15] human TGR23-2 ligand (1-20) (peptide)
peptide: SFRNGVGTG[Nle]KKTSY(125I)QRAKS
For B2, the binding result [4] was “binds”, the Kd [5] was 0.141 nM and the Kd [6] was 0.125 nM. B2: binds [7].

B3: human TGR23-2 ligand (1-20) (peptide)
peptide: SFRNGVGTGMKKTSFQRAKS
notes: also called human TGR23 ligand (1-20)
B3 was tested, and the IC50 [1] was 0.105 nM.

B4: mouse TGR23-2 ligand (1-20) (peptide)
peptide: SFRNGVGSGAKKTSFRRAKQ
B4 gave an IC50 [1] of 0.0245 nM.
